Test results as given in patent US20190183976A1 (GPCR THERAPEUTICS, published 2019).

B1: CXCR4-EGFP (receptor, human, UniProt P61073 1-352, looked up)
chain: MEGISIYTSDNYTEEMGSGDYDSMKEPCFREENANFNKIFLPTIYSIIFLTGIVGNGLVILVMGYQKKLRSMTDKYRLHLSVADLLFVITLPFWAVDAVANWYFGNFLCKAVHVIYTVNLYSSVLILAFISLDRYLAIVHATNSQRPRKLLAEKVVYVGVWIPALLLTIPDFIFANVSEADDRYICDRFYPNDLWVVVFQFQHIMVGLILPGIVILSCYCIIISKLSHSKGHQKRKALKTTVILILAFFACWLPYYIGISIDSFILLEIIKQGCEFENTVHKWISITEALAFFHCCLNPILYAFLGAKFKTSAQHALTSVSRGSSLKILSKGKRGGHSSVSTESESSSFHSS
notes: whole, on cells; also called CXCR4-GFP; CXCR-EGFP; not shown: EGFP/GFP from the pAdHTS-GFPC vector
B2: CXCR4-VN (receptor, human, UniProt P61073 1-352, looked up)
chain: B1 chain
notes: whole, on cells; Adenovirus-expressed in U-2 OS cells; also called CXCR4 fused with N-terminal fragment of Venus; not shown: VNm10, N-terminal fragment of Venus (VN154 variant with L46F and L64F)
B3: ADRA1A-VC (receptor, human, UniProt P35348 1-466, looked up)
chain: MVFLSGNASDSSNCTQPPAPVNISKAILLGVILGGLILFGVLGNILVILSVACHRHLHSVTHYYIVNLAVADLLLTSTVLPFSAIFEVLGYWAFGRVFCNIWAAVDVLCCTASIMGLCIISIDRYIGVSYPLRYPTIVTQRRGLMALLCVWALSLVISIGPLFGWRQPAPEDETICQINEEPGYVLFSALGSFYLPLAIILVMYCRVYVVAKRESRGLKSGLKTDKSDSEQVTLRIHRKNAPAGGSGMASAKTKTHFSVRLLKFSREKKAAKTLGIVVGCFVLCWLPFFLVMPIGSFFPDFKPSETVFKIVFWLGYLNSCINPIIYPCSSQEFKKAFQNVLRIQCLCRKQSSKHALGYTLHPPSQAVEGQHKDMVRIPVGSRETFYRISKTDGVCEWKFFSSMPRGSARITVSKDQSSCTTARVRSKSFLQVCCCVGPSTPSLDKNHQVPTIKVHTISLSENGEEV
notes: whole, on cells; Adenovirus-expressed in U-2 OS cells; not shown: VC155, C-terminal fragment of Venus

Assays:
CHRM1-VC [1] = target: T1, CHRM1-VC (human, UniProt P11229 1-460); assay: co-internalization of CXCR4-GFP after GPCRx agonist, U-2 OS cells
T1 construct: whole, on cells; Adenovirus-expressed in U-2 OS cells; not shown: VC155, C-terminal fragment of Venus
T1 sequence (looked up): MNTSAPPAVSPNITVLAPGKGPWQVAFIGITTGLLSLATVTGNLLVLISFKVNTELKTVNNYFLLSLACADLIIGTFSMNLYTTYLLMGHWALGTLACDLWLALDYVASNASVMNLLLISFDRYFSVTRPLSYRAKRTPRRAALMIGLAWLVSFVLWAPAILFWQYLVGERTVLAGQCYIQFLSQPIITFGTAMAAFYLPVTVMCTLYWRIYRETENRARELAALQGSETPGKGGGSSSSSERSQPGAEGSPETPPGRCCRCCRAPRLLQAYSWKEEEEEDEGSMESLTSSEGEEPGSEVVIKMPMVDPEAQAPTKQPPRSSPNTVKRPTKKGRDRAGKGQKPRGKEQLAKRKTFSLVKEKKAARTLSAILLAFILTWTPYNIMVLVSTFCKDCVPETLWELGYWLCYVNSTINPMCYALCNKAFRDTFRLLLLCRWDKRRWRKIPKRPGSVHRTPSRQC
Description: (§1) Images were obtained before and 30 min after agonist stimulation, and analyzed using IN Cell Analyzer 2000.
(§2) U-2 OS cells were seeded at a density of 3000 cells per well in a black 96-well clear-bottom plate in 100 μl of McCoy's 5A medium supplemented with 10% FBS. […] Two days post-transduction, cells were stimulated with GPCRx agonists for 30 min and fixed with 2% formaldehyde.

EDNRB-VC [2] = target: T2, EDNRB-VC (human, UniProt P24530 27-442); assay: as above
T2 construct: whole, on cells; Adenovirus-expressed in U-2 OS cells; not shown: VC155, C-terminal fragment of Venus
T2 sequence (looked up): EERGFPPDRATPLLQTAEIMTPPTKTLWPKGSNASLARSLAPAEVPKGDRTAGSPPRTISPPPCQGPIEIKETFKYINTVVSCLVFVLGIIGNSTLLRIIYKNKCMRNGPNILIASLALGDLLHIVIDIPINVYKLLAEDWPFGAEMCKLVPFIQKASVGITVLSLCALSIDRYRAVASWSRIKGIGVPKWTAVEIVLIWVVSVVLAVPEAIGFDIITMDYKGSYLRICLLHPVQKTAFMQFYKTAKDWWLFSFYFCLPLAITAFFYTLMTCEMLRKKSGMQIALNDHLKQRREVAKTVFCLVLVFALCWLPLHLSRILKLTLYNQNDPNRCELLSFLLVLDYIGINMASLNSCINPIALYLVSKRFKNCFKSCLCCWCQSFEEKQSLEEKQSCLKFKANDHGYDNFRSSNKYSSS
Description: as §1, §2

HRH1-VC [3] = target: T3, HRH1-VC (human, UniProt P35367 1-487); assay: as above
T3 construct: whole, on cells; Adenovirus-expressed in U-2 OS cells; not shown: VC155, C-terminal fragment of Venus
Description: as §1, §2

MLNR-VC [4] = target: T4, MLNR-VC (human, UniProt O43193 1-412); assay: as above
T4 construct: whole, on cells; Adenovirus-expressed in U-2 OS cells; not shown: VC155, C-terminal fragment of Venus
Description: as §1, §2

NTSR1-VC [5] = target: T5, NTSR1-VC (human, UniProt P30989 1-418); assay: as above
T5 construct: whole, on cells; Adenovirus-expressed in U-2 OS cells; not shown: VC155, C-terminal fragment of Venus
Description: as §1, §2

SSTR2-VC [6] = target: T6, SSTR2-VC (human, UniProt P30874 1-369); assay: as above
T6 construct: whole, on cells; Adenovirus-expressed in U-2 OS cells; not shown: VC155, C-terminal fragment of Venus
Description: as §1, §2

TACR3-VC [7] = target: T7, TACR3-VC (human, UniProt P29371 1-465); assay: as above
T7 construct: whole, on cells; Adenovirus-expressed in U-2 OS cells; not shown: VC155, C-terminal fragment of Venus
T7 sequence (looked up): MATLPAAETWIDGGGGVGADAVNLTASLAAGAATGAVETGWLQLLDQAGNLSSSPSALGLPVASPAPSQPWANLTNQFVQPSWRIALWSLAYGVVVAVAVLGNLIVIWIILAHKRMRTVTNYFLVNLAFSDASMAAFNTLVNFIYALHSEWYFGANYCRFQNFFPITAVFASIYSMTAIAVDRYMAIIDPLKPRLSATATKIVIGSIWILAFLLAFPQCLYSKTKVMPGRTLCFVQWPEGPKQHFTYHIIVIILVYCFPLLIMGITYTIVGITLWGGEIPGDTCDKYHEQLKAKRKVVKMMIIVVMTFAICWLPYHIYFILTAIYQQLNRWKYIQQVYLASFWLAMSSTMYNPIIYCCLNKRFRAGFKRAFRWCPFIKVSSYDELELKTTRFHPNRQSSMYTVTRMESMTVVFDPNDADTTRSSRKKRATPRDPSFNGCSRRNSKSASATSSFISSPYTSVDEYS
Description: as §1, §2

ADRB2-VC [8] = target: T8, ADRB2-VC (human, UniProt P07550 1-413); assay: as above
T8 construct: whole, on cells; Adenovirus-expressed in U-2 OS cells; not shown: VC155, C-terminal fragment of Venus
Description: as §1, §2

APLNR-VC [9] = target: T9, APLNR-VC (human, UniProt P35414 1-380); assay: as above
T9 construct: whole, on cells; Adenovirus-expressed in U-2 OS cells; not shown: VC155, C-terminal fragment of Venus
T9 sequence (looked up): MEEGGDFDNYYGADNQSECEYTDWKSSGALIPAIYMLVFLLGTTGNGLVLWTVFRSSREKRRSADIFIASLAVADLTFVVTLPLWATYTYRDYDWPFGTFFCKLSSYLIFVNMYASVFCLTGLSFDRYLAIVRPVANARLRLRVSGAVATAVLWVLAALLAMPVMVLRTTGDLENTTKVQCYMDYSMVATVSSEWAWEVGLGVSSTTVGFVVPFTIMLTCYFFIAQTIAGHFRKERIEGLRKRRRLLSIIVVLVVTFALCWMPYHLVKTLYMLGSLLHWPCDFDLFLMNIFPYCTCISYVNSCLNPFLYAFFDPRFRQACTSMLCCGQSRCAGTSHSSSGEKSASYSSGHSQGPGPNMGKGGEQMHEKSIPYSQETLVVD
Description: as §1, §2

ADRB2 = target: T10, ADRB2 (human, UniProt P07550 1-413); assay: internalization inhibition assay, CXCR4-GFP U-2 OS cells transduced with GPCRx; CXCL12 and/or GPCRx antagonist
T10 construct: whole, on cells; Untagged: adenovirus-expressed in U-2 OS or MDA-MB-231 cells, or endogenous in patient derived cells and PDX tissue; also called Adrenoceptor Beta 2; Ad-ADRB2
Description: (§3) Internalization of CXCR4-GFP was observed as GFP granules using IN Cell Analyzer 2500. Loss of GFP expression on the cell surface or appearance of GFP granules inside the cells were considered as CXCR4-GFP co-internalization.
(§4) CXCR4-GFP expressed U-2 OS cells were seeded at a density of 5000 cells per well in a black 96-well clear-bottom plate in 100 μl of McCoy's 5A medium supplemented with 10% FBS. On the following day, the cells were transduced with adenoviruses encoding GPCRx (30 MOI).

CHRM1 = target: T11, CHRM1 (human, UniProt P11229 1-460); assay: as above
T11 construct: whole, on cells; Untagged: adenovirus-expressed in U-2 OS or MDA-MB-231 cells, or endogenous in patient derived cells; also called Cholinergic Receptor Muscarinic 1
T11 sequence (looked up): T1 sequence (looked up)
Description: as §3, §4

HRH1 = target: T12, HRH1 (human, UniProt P35367 1-487); assay: as above
T12 construct: whole, on cells; Untagged: adenovirus-expressed in U-2 OS or MDA-MB-231 cells, or endogenous in MDA-MB-231 cells; also called Histamine Receptor H1
Description: as §3, §4

CHRM1-VC [10] = target: T1, CHRM1-VC; assay: BiFC, U-2 OS cells
Description: (§5) Images of about 200 cells from each well were analyzed with Multi-target analysis software in IN Cell Developer ToolBox (GE Healthcare, Waukesha, Wis.). Cell boundary was marked based on Hoechst signal, and fluorescence intensity per cell was measured. Cells with fluorescence intensities higher than background level were considered as BiFC positive cells. […] Positive cells were determined, and positive cell count ratio (“BiFC score”) was calculated as (positive cells/total cells)×100 (see Table 4 below).

EDNRB-VC [11] = target: T2, EDNRB-VC; assay: BiFC, U-2 OS cells
Description: as §5

HRH1-VC [12] = target: T3, HRH1-VC; assay: BiFC, U-2 OS cells
Description: as §5

MLNR-VC [13] = target: T4, MLNR-VC; assay: BiFC, U-2 OS cells
Description: as §5

NTSR1-VC [14] = target: T5, NTSR1-VC; assay: BiFC, U-2 OS cells
Description: as §5

PTGER2-VC = target: T13, PTGER2-VC (human, UniProt P43116 1-358); assay: BiFC, U-2 OS cells
T13 construct: whole, on cells; Adenovirus-expressed in U-2 OS cells; not shown: VC155, C-terminal fragment of Venus
Description: as §5

TACR3-VC [15] = target: T7, TACR3-VC; assay: BiFC, U-2 OS cells
Description: as §5

ADRB2-VC [16] = target: T8, ADRB2-VC; assay: BiFC, U-2 OS cells
Description: as §5

SSTR2-VC [17] = target: T6, SSTR2-VC; assay: BiFC and co-internalization assay, U-2 OS cells
CNR2-VC = target: T14, CNR2-VC (human, UniProt P34972 1-360); assay: BiFC and co-internalization assay, U-2 OS cells
T14 construct: whole, on cells; Adenovirus-expressed in U-2 OS cells; also called Cannabinoid Receptor 2-VC; CB2; not shown: VC155, C-terminal fragment of Venus

APLNR-VC [18] = target: T9, APLNR-VC; assay: BiFC and co-internalization assay, U-2 OS cells
GCGR-VC = target: T15, GCGR-VC (human, UniProt P47871 26-477); assay: BiFC, U-2 OS cells co-expressing CXCR4-VN and GCGR-VC
T15 construct: whole, on cells; Adenovirus-expressed in U-2 OS cells; also called glucagon receptor-VC; not shown: VC155, C-terminal fragment of Venus
Description: as §5

CXCR4-VN = target: B2; assay: BiFC, U-2 OS cells; score=(positive cells/total cells)x100
Description: as §5

T5 sequence (P30989 whole entry, the tested form may be a part): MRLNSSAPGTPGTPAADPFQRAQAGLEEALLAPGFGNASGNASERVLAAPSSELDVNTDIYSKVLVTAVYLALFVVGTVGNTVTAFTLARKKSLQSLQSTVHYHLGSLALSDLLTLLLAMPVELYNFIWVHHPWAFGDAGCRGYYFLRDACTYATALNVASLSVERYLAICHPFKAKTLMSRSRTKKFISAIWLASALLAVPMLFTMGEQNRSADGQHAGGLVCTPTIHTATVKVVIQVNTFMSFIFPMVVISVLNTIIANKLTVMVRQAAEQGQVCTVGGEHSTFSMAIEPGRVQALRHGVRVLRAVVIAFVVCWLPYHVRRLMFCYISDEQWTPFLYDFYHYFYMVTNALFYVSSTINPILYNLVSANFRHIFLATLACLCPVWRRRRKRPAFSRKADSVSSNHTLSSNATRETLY
T3 sequence (P35367 whole entry, the tested form may be a part): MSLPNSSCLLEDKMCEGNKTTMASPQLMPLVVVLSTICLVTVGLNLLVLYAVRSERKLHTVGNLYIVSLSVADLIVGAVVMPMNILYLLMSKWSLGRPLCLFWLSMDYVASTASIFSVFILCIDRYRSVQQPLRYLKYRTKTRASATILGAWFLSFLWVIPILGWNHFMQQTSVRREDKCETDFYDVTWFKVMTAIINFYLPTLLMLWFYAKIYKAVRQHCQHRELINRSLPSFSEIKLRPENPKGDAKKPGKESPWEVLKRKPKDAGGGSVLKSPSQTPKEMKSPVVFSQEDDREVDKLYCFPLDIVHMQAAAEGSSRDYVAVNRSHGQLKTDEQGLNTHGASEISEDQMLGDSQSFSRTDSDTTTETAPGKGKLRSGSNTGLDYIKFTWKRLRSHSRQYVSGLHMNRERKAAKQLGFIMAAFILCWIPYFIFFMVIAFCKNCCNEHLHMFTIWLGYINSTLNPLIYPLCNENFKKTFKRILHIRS
T4 sequence (O43193 whole entry, the tested form may be a part): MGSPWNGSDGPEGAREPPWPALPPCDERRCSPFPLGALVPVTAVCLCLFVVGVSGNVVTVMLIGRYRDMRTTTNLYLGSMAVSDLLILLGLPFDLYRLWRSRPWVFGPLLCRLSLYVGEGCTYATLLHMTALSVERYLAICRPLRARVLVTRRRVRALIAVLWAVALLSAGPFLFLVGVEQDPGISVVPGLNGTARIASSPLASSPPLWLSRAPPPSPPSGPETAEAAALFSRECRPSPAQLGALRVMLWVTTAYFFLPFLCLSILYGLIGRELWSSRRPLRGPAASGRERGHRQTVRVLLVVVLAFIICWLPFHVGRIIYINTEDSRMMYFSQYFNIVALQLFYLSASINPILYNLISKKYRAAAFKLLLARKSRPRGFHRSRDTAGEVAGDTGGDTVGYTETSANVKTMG
T6 sequence (P30874 whole entry, the tested form may be a part): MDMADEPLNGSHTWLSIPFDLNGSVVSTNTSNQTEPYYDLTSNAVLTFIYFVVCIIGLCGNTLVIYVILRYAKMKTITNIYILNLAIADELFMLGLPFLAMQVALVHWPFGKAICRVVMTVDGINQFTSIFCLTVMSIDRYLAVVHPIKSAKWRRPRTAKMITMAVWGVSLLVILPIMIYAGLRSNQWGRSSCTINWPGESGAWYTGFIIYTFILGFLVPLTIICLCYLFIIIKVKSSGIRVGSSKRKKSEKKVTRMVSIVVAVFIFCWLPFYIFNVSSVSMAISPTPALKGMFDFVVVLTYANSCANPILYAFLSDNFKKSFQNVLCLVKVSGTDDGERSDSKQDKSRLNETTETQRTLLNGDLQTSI
T14 sequence (P34972 whole entry, the tested form may be a part): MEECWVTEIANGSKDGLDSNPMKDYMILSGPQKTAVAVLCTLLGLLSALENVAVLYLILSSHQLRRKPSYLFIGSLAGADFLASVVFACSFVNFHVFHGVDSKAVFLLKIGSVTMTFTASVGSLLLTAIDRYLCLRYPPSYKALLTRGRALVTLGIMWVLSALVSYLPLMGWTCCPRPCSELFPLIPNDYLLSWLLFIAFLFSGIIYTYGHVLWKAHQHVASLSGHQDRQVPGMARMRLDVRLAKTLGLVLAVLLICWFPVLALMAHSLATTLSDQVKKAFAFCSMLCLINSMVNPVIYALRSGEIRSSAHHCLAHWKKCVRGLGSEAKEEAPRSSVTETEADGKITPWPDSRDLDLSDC
T13 sequence (P43116 whole entry, the tested form may be a part): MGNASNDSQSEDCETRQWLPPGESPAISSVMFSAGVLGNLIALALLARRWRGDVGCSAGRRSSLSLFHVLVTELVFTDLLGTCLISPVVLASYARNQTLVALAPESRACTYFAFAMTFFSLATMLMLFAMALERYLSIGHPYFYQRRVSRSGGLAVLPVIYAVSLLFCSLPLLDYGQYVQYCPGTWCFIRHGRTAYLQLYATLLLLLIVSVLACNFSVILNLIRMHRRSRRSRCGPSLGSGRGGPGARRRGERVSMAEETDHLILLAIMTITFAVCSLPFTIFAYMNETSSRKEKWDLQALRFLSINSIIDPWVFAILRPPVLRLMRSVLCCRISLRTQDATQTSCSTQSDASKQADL
T15 sequence (P47871 26-477): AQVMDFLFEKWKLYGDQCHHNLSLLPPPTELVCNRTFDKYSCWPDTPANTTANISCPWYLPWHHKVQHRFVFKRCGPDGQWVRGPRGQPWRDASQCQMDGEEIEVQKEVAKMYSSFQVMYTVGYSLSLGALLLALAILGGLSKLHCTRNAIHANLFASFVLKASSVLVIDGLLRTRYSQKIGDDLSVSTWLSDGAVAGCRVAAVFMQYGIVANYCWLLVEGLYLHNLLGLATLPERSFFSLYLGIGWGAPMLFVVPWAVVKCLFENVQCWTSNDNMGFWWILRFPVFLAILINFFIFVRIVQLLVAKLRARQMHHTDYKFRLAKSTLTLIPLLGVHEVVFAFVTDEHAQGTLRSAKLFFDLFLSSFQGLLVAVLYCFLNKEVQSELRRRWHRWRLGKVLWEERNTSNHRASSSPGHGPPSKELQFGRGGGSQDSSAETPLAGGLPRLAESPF
T12 sequence (P35367 whole entry): as the sequence (P35367 whole entry, the tested form may be a part) above

Binder: B1
- binding result (CHRM1-VC [1]): binds
- binding result (EDNRB-VC [2]): binds
- binding result (HRH1-VC [3]): binds
- binding result (MLNR-VC [4]): binds
- binding result (NTSR1-VC [5]): binds
- binding result (SSTR2-VC [6]): binds
- binding result (TACR3-VC [7]): binds
- binding result (ADRB2-VC [8]): binds
- binding result (APLNR-VC [9]): binds
- binding result (ADRB2): binds
- binding result (CHRM1): binds
- binding result (HRH1): binds

Binder: B2
- binding result (CHRM1-VC [10]): binds
- binding result (EDNRB-VC [11]): binds
- binding result (HRH1-VC [12]): binds
- binding result (MLNR-VC [13]): binds
- binding result (NTSR1-VC [14]): binds
- binding result (PTGER2-VC): binds
- binding result (TACR3-VC [15]): binds
- binding result (ADRB2-VC [16]): binds
- binding result (SSTR2-VC [17]): binds
- binding result (CNR2-VC): binds
- binding result (APLNR-VC [18]): binds
- binding result (GCGR-VC): no binding

Binder: B3
- BiFC score (CXCR4-VN): 7.85
